# Reference: publication PMC7039881
# T1: Myc-tagged human GPAT3 (GPAT3-Myc), Q53EU6
# T1 chain: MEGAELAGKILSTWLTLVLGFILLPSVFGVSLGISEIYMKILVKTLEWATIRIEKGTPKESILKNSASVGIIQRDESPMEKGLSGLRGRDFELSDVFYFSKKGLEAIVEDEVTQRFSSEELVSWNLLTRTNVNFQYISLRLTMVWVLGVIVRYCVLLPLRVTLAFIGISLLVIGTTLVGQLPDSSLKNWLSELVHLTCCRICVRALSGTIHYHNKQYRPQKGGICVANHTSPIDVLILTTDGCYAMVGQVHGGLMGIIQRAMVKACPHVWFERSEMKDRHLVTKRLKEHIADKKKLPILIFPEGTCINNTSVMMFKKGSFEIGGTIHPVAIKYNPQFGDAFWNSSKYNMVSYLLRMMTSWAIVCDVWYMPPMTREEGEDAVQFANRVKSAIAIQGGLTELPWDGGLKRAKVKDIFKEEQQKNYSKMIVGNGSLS
# B1: Myc-tagged human GPAT3 (GPAT3-Myc) (enzyme)
# chain: T1 chain
# B2: FLAG-GPAT3 (enzyme)
# chain: T1 chain
# B3: N-terminal FLAG-tagged wild-type seipin (WT), Q96G97 T78A (protein)
# chain: MVNDPPVPALLWAQEVGQVLAGRARRLLLQFGVLFCTILLLLWVSVFLYGSFYYSYMPTVSHLSPVHFYYRTDCDSSATSLCSFPVANVSLTKGGRDRVLMYGQPYRVTLELELPESPVNQDLGMFLVTISCYTRGGRIISTSSRSVMLHYRSDLLQMLDTLVFSSLLLFGFAEQKQLLEVELYADYRENSYVPTTGAIIEIHSKRIQLYGAYLRIHAHFTGLRYLLYNFPMTCAFIGVASNFTFLSVIVLFSYMQWVWGGIWPRHRFSLQVNIRKRDNSRKEVQRRISAHQPGPEGQEESTPQSDVTEDGESPEDPSGTEGQLSEEEKPDQQPLSGEEELEPEASDGSGSWEDAALLTEANLPAPAPASASAPVLETLGSSEPAGGALRQRPTCSSS
# Experiments:
# [1] = target: N-terminal FLAG-tagged seipin A212P (human) (UniProt Q96G97); assay: co-IP; HEK293 cells co-transfected, lysed 48 h later in ODG lysis buffer (50 mM n-octyl-β-D-glucopyranoside, 50 mM Tris pH 6.8, 150 mM NaCl, 1 mM EDTA); anti-FLAG-agarose beads 2 h at 4 °C, eluted with 3xFLAG peptide; immunoblot for FLAG and Myc
# [2] = target: N-terminal FLAG-tagged seipin L91P (human) (UniProt Q96G97); assay: as above
# [3] = target: Seipin-Myc, wild type (human) (UniProt Q96G97); assay: atomic force microscopy; proteins co-isolated on anti-Myc beads from co-transfected tsA 201 cells, eluted and imaged in tapping mode in air; particle volumes and angles
# [4] = target: T1, Myc-tagged human GPAT3 (GPAT3-Myc), …; assay: co-immunoprecipitation (anti-FLAG IP, immunoblot quantification); conditions: chain shown with the change; HEK293 cells; n = 3; parent: est. 1.0; read off a plot
binder,measurement,setting,value
B1,reduction of the co-immunoprecipitation against wild-type seipin,[1],50%
same,reduction of the co-immunoprecipitation against wild-type seipin,[2],50%
B2,percent of seipin particles decorated by two GPAT3 particles,[3],10.4%
B3,ratio to parent,[4],0.84 fold vs WT
